{"source": "patent US20190062752", "about": "“Transcription Factor Trapping by RNA in Gene Regulatory Elements” (Whitehead Institute for Biomedical Research, published 2019)", "binders": {"B1": {"name": "Rpl30 DNA with tethered Arid1a RNA (mixed)", "mixed 1": "TCGCTCCCCGGCCATCTTGGCGGCTGGTGTCUCUUCUCUCUUAAAAUGGCUGCCUGUCUG", "mixed 2": "ACACCAGCCGCCAAGATGGCCGGGGAGCGACUCUUCUCUCUUAAAAUGGCUGCCUGUCUG"}, "B2": {"name": "Lefty1 enhancer DNA (dsDNA)", "DNA 1": "GGTGGGAGGGAGACTGCCCTTTGTCATGTAGAAGGAGCTT", "DNA 2": "AAGCTCCTTCTACATGACAAAGGGCAGTCTCCCTCCCACC"}, "B3": {"name": "Rpl30 promoter DNA with YY1 motif (dsDNA)", "DNA 1": "TCGCTCCCCGGCCATCTTGGCGGCTGGTGT", "DNA 2": "ACACCAGCCGCCAAGATGGCCGGGGAGCGA"}, "B4": {"name": "Arid1a promoter DNA with YY1 motif (dsDNA)", "DNA 1": "CTCTTCTCTCTTAAAATGGCTGCCTGTCTG", "DNA 2": "CAGACAGGCAGCCATTTTAAGAGAGAAGAG"}}, "key": {"YY1 (full length) [1]": {"biological_target": "T1, YY1 (full length) (Mus musculus, UniProt Q00899 Q00899:1-414)", "T1 sequence (Q00899 whole entry, one chain of several)": "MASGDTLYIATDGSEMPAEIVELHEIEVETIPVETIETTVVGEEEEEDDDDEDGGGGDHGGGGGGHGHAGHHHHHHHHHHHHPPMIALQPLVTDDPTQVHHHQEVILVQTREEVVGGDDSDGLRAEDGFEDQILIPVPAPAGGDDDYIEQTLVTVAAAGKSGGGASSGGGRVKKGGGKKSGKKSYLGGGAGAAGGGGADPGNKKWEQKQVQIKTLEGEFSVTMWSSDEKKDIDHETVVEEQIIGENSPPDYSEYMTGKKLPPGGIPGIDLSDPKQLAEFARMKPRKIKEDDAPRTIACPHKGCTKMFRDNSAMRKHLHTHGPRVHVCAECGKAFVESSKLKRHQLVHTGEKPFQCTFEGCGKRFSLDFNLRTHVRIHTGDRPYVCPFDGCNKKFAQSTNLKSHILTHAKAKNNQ", "assay": "EMSA; tethered RNA outcompetes DNA with untethered RNA; IC50 values only in figure", "conditions": "tags: N-terminal His6; label: 32P (probe 2); 30-bp DNA duplex with 30-nt RNA overhang at each 3' end"}, "[2]": {"biological_target": "T2, YY1 C-terminal region (zinc fingers) (Mus musculus, UniProt Q00899 Q00899:271-414)", "T2 sequence (Q00899 271-414, one chain of several)": "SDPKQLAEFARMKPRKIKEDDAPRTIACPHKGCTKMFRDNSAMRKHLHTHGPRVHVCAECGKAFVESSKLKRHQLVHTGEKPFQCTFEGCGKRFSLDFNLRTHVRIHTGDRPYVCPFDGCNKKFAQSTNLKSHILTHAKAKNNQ", "assay": "EMSA; zinc-finger region does not bind RNA", "conditions": "label: 32P", "description": "(§1) Sizes of N-terminal and C-terminal regions of YY1 are drawn to scale. […] 5 nM of radioactively labeled 30-bp DNA probe derived from the promoter region of Arid1a gene containing a consensus YY1 binding motif was incubated with increasing concentrations of full-length recombinant murine YY1 protein (FL), the N-terminal portion of YY1 (N-term) lacking the zinc-fingers or the C-terminal portion (C-term) containing the zinc fingers. […] The arrows indicate free probe and probe bound by YY1. […] 5 nM of radioactively labeled 30-nt RNA probe derived from the promoter region of Arid1a gene was incubated with increasing concentrations of full-length recombinant murine YY1 protein (FL), the N-terminal portion of YY1 (N-term) lacking the zinc-fingers or the C-terminal portion (C-term) containing the zinc fingers. […] The arrows indicate free probe and probe bound by YY1;\n(§2) EMSAs with the recombinant murine YY1 were performed in a similar way as those with the NE. DNA-binding reactions (20 μl) contained 10 mM HEPES-KOH pH 7.5, 12 mM Tris-HCl pH 7.4, 50 mM NaCl, 50 mM KCl, 5 mM MgCl₂, 0.1 mM ZnCl₂, 0.01% NP-40, 5% glycerol, 500 ng poly(dI-dC), 0.5 mM DTT, and recombinant murine YY1. […]"}, "YY1 (full length) [3]": {"biological_target": "T1, YY1 (full length)", "assay": "EMSA; weaker than DNA; 0.1 mM ZnCl2, 5 mM MgCl2", "conditions": "tags: N-terminal His6; label: 32P", "description": "(§3) 5 nM of radioactively labeled 30-bp DNA probe derived from the promoter region of Arid1a gene containing a consensus YY1 binding motif ([…]; SEQ ID NO: 4) was incubated with increasing concentrations of recombinant murine YY1 protein. Right panel: EMSA of YY1-RNA complexes at different concentrations of recombinant YY1. 5 nM of radioactively labeled 30-nt RNA probe derived from the same region of the Arid1a gene was incubated with increasing concentrations of recombinant YY1 protein.\n(§4) EMSAs with the recombinant murine YY1 were performed in a similar way as those with the NE. DNA-binding reactions (20 μl) contained 10 mM HEPES-KOH pH 7.5, 12 mM Tris-HCl pH 7.4, 50 mM NaCl, 50 mM KCl, 5 mM MgCl₂, 0.1 mM ZnCl₂, 0.01% NP-40, 5% glycerol, 500 ng poly(dI-dC), 0.5 mM DTT, and recombinant murine YY1. RNA-binding reactions (20 μl) contained 10 mM HEPES-KOH pH 7.5, 12 mM Tris-HCl pH 7.4, 50 mM NaCl, 50 mM KCl, 5 mM MgCl₂, 0.1 mM ZnCl₂, 0.01% NP-40, 5% glycerol, 10 U SUPERase In RNase inhibitor (Life Technologies), 0.5 mM DTT, and recombinant murine YY1."}, "OCT4 [4]": {"biological_target": "T3, OCT4 (Homo sapiens, UniProt Q01860 Q01860:1-360)", "T3 sequence (Q01860 whole entry, one chain of several)": "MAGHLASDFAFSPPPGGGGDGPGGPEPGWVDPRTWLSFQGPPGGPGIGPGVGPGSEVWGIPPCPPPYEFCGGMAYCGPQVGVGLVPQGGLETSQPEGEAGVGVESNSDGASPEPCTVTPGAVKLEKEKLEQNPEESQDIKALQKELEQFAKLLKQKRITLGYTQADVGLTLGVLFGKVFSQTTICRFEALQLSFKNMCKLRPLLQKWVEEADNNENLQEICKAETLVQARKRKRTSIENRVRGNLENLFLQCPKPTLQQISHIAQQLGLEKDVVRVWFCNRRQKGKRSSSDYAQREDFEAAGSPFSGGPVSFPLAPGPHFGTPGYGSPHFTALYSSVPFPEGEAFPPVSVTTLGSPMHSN", "assay": "EMSA; legend: OCT4 does not bind RNA in vitro", "conditions": "tags: Abcam ab134876; label: 32P", "description": "(§5) The x-axis indicates distance from the TSS in kilobases. The y-axis indicates average density of uniquely mapped reads per genomic bin. […] A radioactively labeled 40-bp DNA probe containing OCT4 consensus binding motif derived from the enhancer of Lefty1 gene was incubated with 250 nM of the recombinant human OCT4 (Abcam, # ab134876). In competition EMSA, 100-fold molar excess of cold competitor DNA containing the OCT4 motif (Lefty1 DNA comp), cold DNA competitor, in which bases adjacent the OCT4 motif were randomly substituted (mut Lefty1 DNA comp), cold DNA competitor lacking the OCT4 motif (Arid1a DNA comp), or cold RNA competitor (Arid1a RNA comp) was pre-incubated with the recombinant OCT4 before the radioactively labeled DNA probe was added to the binding reaction. The arrows indicate free probe and probe bound by OCT4."}, "YY1 N-terminal region": {"biological_target": "YY1 N-terminal region (Mus musculus, UniProt Q00899 Q00899:1-277)", "sequence (Q00899 1-277, one chain of several)": "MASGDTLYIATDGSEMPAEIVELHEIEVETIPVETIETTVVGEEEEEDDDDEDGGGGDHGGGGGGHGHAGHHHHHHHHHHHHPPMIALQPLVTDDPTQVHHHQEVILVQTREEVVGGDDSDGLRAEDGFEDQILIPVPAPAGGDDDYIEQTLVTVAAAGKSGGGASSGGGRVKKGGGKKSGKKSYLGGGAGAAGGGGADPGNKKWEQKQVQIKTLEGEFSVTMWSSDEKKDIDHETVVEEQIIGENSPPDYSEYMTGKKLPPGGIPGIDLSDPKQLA", "assay": "EMSA; N-terminal region binds RNA", "conditions": "label: 32P", "description": "as §1, §2"}, "OCT4 [5]": {"biological_target": "T3, OCT4", "assay": "EMSA; 250 nM OCT4", "conditions": "tags: Abcam ab134876; label: 32P", "description": "as §5"}, "YY1 (full length) [6]": {"biological_target": "T1, YY1 (full length)", "assay": "EMSA; 240 nM YY1 in FIG. 9C", "conditions": "tags: N-terminal His6; label: 32P", "description": "A radioactively labeled 30-bp DNA probe containing YY1 consensus binding motif derived from the promoter region of Arid1a gene was incubated with 80 nM of the recombinant murine YY1. For supershift assay, 0.5 μl of YY1 antibodies (# sc-7341) was added to the DNA probe pre-incubated with the recombinant protein. In competition EMSA, 100-fold molar excess of cold competitor DNA containing YY1 motif (Spec comp) or lacking YY1 motif (Nspec comp) was pre-incubated with the recombinant YY1 before the radioactively labeled DNA probe was added to the binding reaction. The arrows indicate free probe, probe bound by YY1, probe bound by YY1 fragment, and supershifted probe. […] Radioactively labeled 30-bp DNA probe containing YY1 consensus binding motif derived from the promoter region of Rpl30 gene was incubated with 240 nM of the recombinant murine YY1. In competition EMSA, 100-fold molar excess of cold competitor RNA derived from the promoter region of Arid1a gene was pre-incubated with the recombinant murine YY1 before the radioactively labeled DNA probe was added to the binding reaction. The arrows indicate free probe and probe bound by YY1;\nEMSAs with the recombinant murine YY1 were performed in a similar way as those with the NE. […]"}, "YY1 (full length) [7]": {"biological_target": "T1, YY1 (full length)", "assay": "EMSA; higher affinity than for RNA; 0.1 mM ZnCl2, 5 mM MgCl2; binding curve only in FIG. 7B", "conditions": "tags: N-terminal His6; label: 32P", "description": "as §3, §4"}, "[8]": {"biological_target": "T2, YY1 C-terminal region (zinc fingers)", "assay": "EMSA; zinc-finger region binds DNA", "conditions": "label: 32P", "description": "as §1, §2"}, "YY1 (full length) [9]": {"biological_target": "T1, YY1 (full length)", "assay": "competition; described as RNA incompatible with YY1 binding in vitro", "conditions": "tags: N-terminal His6", "description": "A radioactively labeled 30-nt RNA probe containing sequence derived from the promoter region of Arid1a gene shown in blue above the image or the complementary sequence shown in pink was incubated with 400 nM of the recombinant murine YY1. The arrows indicate free probe and probe bound by YY1. […] Radioactively labeled 30-nt RNA probe derived from the promoter region of Arid1a gene was incubated with 400 nM of recombinant murine YY1. Sequence of the probe is shown above the image in blue. In competition EMSA, 100-fold molar excess of cold competitor RNA with the same sequence as the radiolabeled RNA (Arid1a RNA A), complementary sequence (Arid1a RNA 1), or a different sequence (Arid1a RNA B) was pre-incubated with the recombinant YY1 before the probe was added to the binding reaction. The arrows indicate free probe and probe bound by YY1. Asterisk indicates the position of double-stranded RNA formed when single-stranded cold RNA was incubated with the complementary labelled RNA probe. […] Radioactively labeled 30-nt RNA probe derived from the promoter region of Arid1a gene was incubated with 400 nM of recombinant murine YY1. Sequence of the probe and competitor RNA are shown above the image. For supershift assay, 0.5 μl of YY1 antibodies (# sc-7341) was added to the RNA probe. […]"}}}
{"binder": "B1", "values": [{"measurement": "binding result", "setting": "YY1 (full length) [1]", "value": "binds"}]}
{"binder": "CUCUUCUCUCUUAAAAUGGCUGCCUGUCUG (ssRNA)", "note": "[Arid1a promoter RNA A]", "values": [{"measurement": "binding result", "setting": "[2]", "value": "no binding"}, {"measurement": "binding result", "setting": "YY1 (full length) [3]", "value": "binds"}, {"measurement": "binding result", "setting": "OCT4 [4]", "value": "no binding"}, {"measurement": "binding result", "setting": "YY1 N-terminal region", "value": "binds"}]}
{"binder": "B2", "values": [{"measurement": "binding result", "setting": "OCT4 [5]", "value": "binds"}]}
{"binder": "B3", "values": [{"measurement": "binding result", "setting": "YY1 (full length) [6]", "value": "binds"}]}
{"binder": "B4", "values": [{"measurement": "binding result", "setting": "YY1 (full length) [7]", "value": "binds"}, {"measurement": "binding result", "setting": "[8]", "value": "binds"}]}
{"binder": "CCCGCCUCCCCAGGCCUACGCGCUGAGCUC (ssRNA)", "note": "[Arid1a promoter RNA B]", "values": [{"measurement": "binding result", "setting": "YY1 (full length) [9]", "value": "no binding"}]}
